Results reported in patent US20200057047A1 (NATIONAL HEALTH RESEARCH INSTITUTES, published 2020).

Key:
[1] = molecular target: T1, AhR, endogenous, human peripheral blood T cells (SLE and RA patients) (human, UniProt P35869 11-848, limits assumed); experiment: in situ PLA, human peripheral blood T cells (FIG. 8C)
T1 sequence (looked up): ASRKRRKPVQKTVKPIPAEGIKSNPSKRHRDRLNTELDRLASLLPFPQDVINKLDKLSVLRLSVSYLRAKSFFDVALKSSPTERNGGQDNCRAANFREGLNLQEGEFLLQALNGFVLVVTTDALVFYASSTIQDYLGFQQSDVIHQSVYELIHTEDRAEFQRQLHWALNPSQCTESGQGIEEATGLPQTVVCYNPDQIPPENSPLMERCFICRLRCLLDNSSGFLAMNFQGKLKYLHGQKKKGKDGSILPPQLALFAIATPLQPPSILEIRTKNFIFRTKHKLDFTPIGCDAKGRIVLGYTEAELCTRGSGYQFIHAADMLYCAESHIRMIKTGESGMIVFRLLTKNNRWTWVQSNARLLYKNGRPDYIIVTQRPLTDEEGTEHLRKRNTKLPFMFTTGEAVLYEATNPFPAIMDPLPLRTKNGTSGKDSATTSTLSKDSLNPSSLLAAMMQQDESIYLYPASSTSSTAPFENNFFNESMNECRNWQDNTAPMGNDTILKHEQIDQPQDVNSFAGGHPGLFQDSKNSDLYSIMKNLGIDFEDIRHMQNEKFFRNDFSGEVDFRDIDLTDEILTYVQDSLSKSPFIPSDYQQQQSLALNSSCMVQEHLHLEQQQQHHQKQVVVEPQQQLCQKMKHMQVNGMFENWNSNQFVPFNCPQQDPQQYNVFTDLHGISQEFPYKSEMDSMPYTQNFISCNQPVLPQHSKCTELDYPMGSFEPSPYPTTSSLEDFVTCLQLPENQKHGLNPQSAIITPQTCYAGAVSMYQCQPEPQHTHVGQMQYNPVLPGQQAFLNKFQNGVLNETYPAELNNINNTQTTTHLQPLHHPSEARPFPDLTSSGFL

[2] = molecular target: IQGAP1, endogenous, lung tissues of mice in the LLC/luc metastatic lung cancer model (mouse, UniProt Q9JKF1 2-1657); experiment: in situ PLA, lung tissues of the LLC/luc mouse model (FIG. 16H, upper panel)
Chain of IQGAP1, endogenous, lung tissues of mice in the LLC/luc metastatic lung cancer model (Q9JKF1 2-1657 limits assumed): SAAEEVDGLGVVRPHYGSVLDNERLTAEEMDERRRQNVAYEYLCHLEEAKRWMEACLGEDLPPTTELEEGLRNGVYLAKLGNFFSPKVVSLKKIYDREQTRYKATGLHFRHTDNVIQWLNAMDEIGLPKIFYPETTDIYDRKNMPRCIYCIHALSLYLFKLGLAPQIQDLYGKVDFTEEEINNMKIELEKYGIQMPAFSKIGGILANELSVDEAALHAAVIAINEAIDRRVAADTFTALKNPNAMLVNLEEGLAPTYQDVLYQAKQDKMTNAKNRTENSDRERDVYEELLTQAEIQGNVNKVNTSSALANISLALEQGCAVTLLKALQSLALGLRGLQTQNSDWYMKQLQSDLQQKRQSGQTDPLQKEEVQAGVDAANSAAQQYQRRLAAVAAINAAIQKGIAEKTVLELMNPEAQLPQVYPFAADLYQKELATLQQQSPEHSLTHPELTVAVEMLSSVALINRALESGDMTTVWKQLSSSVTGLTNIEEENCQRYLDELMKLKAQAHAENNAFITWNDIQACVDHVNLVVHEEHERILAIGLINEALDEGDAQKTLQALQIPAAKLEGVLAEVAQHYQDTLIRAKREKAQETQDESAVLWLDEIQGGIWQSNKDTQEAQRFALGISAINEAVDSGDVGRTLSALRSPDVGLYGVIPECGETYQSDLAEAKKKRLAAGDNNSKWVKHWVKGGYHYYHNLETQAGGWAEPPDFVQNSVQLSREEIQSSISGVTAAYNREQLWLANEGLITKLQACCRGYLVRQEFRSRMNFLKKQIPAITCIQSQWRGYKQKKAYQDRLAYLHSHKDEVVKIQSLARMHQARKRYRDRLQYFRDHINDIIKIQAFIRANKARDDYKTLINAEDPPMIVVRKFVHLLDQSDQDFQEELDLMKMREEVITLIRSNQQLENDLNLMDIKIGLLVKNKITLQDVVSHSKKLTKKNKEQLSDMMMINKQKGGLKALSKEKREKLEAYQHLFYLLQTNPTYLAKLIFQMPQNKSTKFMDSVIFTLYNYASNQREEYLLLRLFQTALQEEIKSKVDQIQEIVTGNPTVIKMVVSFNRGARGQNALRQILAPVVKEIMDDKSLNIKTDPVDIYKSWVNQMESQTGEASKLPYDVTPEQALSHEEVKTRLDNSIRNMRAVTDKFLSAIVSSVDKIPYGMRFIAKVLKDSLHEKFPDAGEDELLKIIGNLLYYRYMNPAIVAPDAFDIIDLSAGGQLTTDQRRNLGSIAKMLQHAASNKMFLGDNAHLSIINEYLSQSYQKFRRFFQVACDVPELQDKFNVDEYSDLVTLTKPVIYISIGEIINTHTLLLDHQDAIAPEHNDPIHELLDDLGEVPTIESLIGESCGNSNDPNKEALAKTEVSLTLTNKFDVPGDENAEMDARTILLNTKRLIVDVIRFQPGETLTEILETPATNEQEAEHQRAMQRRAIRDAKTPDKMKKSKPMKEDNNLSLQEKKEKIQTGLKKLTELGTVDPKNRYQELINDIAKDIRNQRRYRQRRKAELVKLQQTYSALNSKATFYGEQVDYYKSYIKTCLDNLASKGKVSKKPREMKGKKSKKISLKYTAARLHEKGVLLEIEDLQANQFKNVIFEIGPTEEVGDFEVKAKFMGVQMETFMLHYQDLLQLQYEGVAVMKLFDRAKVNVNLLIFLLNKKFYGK

[3] = molecular target: IQGAP1, endogenous, human NSCLC tissues (human, UniProt P46940 2-1657); experiment: in situ PLA with probes for GLK and IQGAP1, human NSCLC tissue sections (FIGS. 21A-B)
Chain of IQGAP1, endogenous, human NSCLC tissues (P46940 2-1657 limits assumed): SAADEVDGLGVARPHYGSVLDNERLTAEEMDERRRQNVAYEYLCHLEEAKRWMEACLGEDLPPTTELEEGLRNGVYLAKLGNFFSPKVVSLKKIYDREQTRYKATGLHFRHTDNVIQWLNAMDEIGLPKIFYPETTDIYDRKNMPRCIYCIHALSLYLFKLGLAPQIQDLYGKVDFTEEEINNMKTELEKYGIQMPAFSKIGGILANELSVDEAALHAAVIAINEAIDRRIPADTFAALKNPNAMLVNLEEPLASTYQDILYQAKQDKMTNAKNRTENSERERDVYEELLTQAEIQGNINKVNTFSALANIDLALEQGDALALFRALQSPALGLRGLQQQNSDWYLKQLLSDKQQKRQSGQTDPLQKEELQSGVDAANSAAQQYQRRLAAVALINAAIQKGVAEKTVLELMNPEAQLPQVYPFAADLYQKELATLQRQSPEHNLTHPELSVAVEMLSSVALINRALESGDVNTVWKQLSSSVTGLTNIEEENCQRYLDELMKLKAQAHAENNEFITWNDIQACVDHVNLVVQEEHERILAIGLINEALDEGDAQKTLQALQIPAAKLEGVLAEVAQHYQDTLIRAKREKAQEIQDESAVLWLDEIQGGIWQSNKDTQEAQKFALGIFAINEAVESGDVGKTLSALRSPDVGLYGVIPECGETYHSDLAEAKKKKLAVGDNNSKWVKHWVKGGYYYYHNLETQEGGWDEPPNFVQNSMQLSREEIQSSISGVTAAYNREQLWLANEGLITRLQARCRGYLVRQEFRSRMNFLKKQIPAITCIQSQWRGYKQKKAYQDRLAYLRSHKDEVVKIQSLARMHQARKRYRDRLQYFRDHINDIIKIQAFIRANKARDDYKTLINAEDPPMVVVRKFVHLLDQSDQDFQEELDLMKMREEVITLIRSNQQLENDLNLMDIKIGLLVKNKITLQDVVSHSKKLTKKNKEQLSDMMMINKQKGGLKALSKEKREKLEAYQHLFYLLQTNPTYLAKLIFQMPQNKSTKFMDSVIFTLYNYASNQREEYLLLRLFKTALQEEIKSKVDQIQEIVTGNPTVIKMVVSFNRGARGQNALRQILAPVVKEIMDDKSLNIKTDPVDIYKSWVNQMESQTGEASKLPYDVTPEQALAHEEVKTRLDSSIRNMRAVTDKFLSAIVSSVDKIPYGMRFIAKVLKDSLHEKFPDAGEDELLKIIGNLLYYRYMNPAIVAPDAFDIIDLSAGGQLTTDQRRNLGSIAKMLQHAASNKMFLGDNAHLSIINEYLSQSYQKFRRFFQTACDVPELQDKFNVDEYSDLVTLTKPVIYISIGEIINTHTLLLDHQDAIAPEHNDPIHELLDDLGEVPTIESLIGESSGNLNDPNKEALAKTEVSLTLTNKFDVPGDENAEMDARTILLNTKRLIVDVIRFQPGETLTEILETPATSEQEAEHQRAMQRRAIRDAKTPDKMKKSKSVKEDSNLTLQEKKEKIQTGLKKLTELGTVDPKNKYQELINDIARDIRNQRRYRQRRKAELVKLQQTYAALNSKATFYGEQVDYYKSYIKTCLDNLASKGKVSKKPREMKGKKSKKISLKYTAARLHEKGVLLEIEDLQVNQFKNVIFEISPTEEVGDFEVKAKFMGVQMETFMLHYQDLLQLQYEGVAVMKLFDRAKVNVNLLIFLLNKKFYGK
Excerpt: These tissues were subjected to in situ proximity ligation assay (PLA) with a combination of paired PLA probes corresponding to GLK and IQGAP1. […] The few PLA signals in the normal adjacent tissues of NSCLC patients may be metastatic cancer cells migrating from original lesion. […] Next, we studied whether the GLK−IQGAP1 complex could act as a potential prognostic biomarker for NSCLCs. NSCLC (squamous cell carcinoma and adenocarcinoma) patients, whose survival data were available, were divided into four PLA-signal subgroups after cluster analyses. The two subgroups with highest PLA signals contained only one and two patients, respectively, thus, these two subgroups were excluded from further analysis. The remaining two subgroups (n=63) were subjected to Kaplan-Meier survival analysis using the survival data (available from the provider). […] The higher P value (P=0.069) may be due to the exclusion of three data with highest PLA signals. Nevertheless, NSCLC patients with more GLK−IQGAP1 complexes have a lower survival rate than that of the patients with less GLK−IQGAP1 complexes. Because 40% to 60% of NSCLC patients the of cancer recurrence after cancer resection, we studied whether the GLK−IQGAP1 complex is associated with NSCLC metastasis. […]

[4] = molecular target: T2, GLK (MAP4K3) (transfected; construct of the ALPHA assay with AhR not stated) (UniProt Q8IVH8 1-894, limits assumed); experiment: ALPHA protein-protein interaction assay
T2 construct: Expression plasmid 'reported previously'
T2 sequence (looked up): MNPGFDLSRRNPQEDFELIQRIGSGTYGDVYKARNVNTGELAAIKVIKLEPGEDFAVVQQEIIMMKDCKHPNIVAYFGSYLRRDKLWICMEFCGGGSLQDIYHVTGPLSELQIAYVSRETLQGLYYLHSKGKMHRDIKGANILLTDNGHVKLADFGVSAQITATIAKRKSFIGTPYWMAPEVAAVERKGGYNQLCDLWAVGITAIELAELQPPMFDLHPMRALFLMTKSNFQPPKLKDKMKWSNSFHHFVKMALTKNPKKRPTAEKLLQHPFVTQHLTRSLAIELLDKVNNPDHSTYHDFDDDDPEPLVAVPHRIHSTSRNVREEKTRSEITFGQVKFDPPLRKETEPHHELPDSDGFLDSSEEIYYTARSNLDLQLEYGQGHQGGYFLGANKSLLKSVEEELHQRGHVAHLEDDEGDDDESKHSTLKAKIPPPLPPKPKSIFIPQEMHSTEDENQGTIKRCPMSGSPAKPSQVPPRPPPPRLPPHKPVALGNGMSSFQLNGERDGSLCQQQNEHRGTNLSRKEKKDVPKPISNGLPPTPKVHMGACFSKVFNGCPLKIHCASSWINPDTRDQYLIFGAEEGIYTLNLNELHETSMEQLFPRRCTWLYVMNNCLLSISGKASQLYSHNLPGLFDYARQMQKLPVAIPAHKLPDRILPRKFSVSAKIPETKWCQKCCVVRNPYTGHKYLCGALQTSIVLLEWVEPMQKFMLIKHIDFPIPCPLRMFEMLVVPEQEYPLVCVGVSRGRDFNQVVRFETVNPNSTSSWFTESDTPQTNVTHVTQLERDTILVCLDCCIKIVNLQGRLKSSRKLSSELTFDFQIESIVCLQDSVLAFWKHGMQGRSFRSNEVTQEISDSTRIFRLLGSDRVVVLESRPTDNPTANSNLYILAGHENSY

HA-tagged AhR = molecular target: T3, HA-tagged AhR (Homo sapiens (Human), UniProt P35869 1-848, limits assumed); experiment: co-IP, HEK293T cells co-transfected with IKKβ-CFP (FIG. 5I)
T3 construct: also called HA-AhR; purified AhR; not shown: HA tag
T3 sequence: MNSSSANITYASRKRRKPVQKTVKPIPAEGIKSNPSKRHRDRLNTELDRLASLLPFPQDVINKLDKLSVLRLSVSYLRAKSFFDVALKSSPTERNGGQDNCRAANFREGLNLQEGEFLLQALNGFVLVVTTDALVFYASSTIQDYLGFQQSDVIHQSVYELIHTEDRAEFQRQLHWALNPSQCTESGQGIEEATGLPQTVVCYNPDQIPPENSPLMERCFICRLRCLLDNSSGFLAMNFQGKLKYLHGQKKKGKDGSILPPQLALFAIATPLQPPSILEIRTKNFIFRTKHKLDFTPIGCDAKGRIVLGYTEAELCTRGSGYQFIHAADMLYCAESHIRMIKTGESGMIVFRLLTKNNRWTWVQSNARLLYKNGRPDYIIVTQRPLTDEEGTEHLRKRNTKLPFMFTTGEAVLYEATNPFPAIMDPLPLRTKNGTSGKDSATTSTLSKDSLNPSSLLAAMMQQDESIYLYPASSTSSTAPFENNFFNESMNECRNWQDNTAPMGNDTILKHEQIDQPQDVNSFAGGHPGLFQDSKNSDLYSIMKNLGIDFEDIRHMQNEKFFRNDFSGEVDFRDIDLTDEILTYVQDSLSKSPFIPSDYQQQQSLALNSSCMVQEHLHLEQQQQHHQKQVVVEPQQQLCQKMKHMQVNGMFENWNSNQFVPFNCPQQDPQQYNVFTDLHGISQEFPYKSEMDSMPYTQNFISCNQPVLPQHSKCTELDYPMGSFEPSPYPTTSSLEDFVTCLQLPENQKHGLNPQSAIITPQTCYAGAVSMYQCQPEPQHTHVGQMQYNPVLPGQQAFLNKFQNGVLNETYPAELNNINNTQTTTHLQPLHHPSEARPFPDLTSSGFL

B1: RORγt, endogenous, human peripheral blood T cells (SLE and RA patients) (receptor, UniProt P51449-2 1-497, looked up)
chain: MRTQIEVIPCKICGDKSSGIHYGVITCEGCKGFFRRSQRCNAAYSCTRQQNCPIDRTSRNRCQHCRLQKCLALGMSRDAVKFGRMSKKQRDSLHAEVQKQLQQRQQQQQEPVVKTPPAGAQGADTLTYTLGLPDGQLPLGSSPDLPEASACPPGLLKASGSGPSYSNNLAKAGLNGASCHLEYSPERGKAEGRESFYSTGSQLTPDRCGLRFEEHRHPGLGELGQGPDSYGSPSFRSTPEAPYASLTEIEHLVQSVCKSYRETCQLRLEDLLRQRSNIFSREEVTGYQRKSMWEMWERCAHHLTEAIQYVVEFAKRLSGFMELCQNDQIVLLKAGAMEVVLVRMCRAYNADNRTVFFEGKYGGMELFRALGCSELISSIFDFSHSLSALHFSEDEIALYTALVLINAHRPGLQEKRKVEQLQYNLELAFHHHLCKTHRQSILAKLPPKGKLRSLCSQHVERLQIFQHLHPIVVQAAFPPLYKELFSTETESPVGLSK
[1]
  binding result: binds

B2: GLK, endogenous, lung tissues of mice in the LLC/luc metastatic lung cancer model (enzyme)
chain: not shown
[2]
  binding result: binds

B3: GLK, endogenous, human NSCLC tissues (enzyme, UniProt Q8IVH8 1-894, looked up)
chain: T2 sequence (looked up)
[3]
  binding result: binds

B4: AhR (transfected; construct of the ALPHA and FRET assays with PKCθ or GLK not stated) (receptor)
chain: T3 sequence
[4]
  binding result: no binding

B5: Flag-tagged RORγt-S489A mutant (receptor)
chain: DYKDDDDKMRTQIEVIPCKICGDKSSGIHYGVITCEGCKGFFRRSQQCNVAYSCTRQQNCPIDRTSRNRCQHCRLQKCLALGMSRDAVKFGRMSKKQRDSLHAEVQKQLQQQQQQEQVAKTPPAGSRGADTLTYTLGLSDGQLPLGASPDLPEASACPPGLLRASGSGPPYSNTLAKTEVQGASCHLEYSPERGKAEGRDSIYSTDGQLTLGRCGLRFEETRHPELGEPEQGPDSHCIPSFCSAPEVPYASLTDIEYLVQNVCKSFRETCQLRLEDLLRQRTNLFSREEVTSYQRKSMWEMWERCAHHLTEAIQYVVEFAKRLSGFMELCQNDQIILLKAGAMEVVLVRMCRAYNANNHTVFFEGKYGGVELFRALGCSELISSIFDFSHFLSALCFSEDEIALYTALVLINANRPGLQEKRRVEHLQYNLELAFHHHLCKTHRQGLLAKLPPKGKLRSLCSQHVEKLQIFQHLHPIVVQAAFPPLYKELFSTDVEAPEGLSK
HA-tagged AhR
  binding result: no binding
